# Reference: the nanobody polyreactivity screen of Harvey et al. (2022)
# Assay: yeast display, Sf9 membrane polyspecificity reagent, FACS + sequencing; frameworks hold sequencing errors
# In short: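 Galactose-induced (36–48 hours) yeast carrying a synthetic nanobody display library were exposed to 10% biotinylated, detergent-solubilized Sf9 membrane reagent at 4 °C for 1 hour. FACS followed streptavidin microbead enrichment, using low and high (top ~1%) gates for expression (anti-HA) and reagent binding (streptavidin). Colony PCR, MiSeq 2 × 250 sequencing and CDR-length filtering followed. Labels for polyreactivity reflect the gate of origin.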
sequence,measurement,value
QVQLVESGGGLVQAGASLRLSCAASGRTLKVYAMGWYRQAPGKERELDAAINNGGSTNYADSVKGRFTISRDNAKNTVYLQMNSLKPEDTAVYYCNAVYYARYRKYTYYYWGQGTQVTVSS,polyreactivity (PSR sort gate),high polyreactivity
QVQLVESGGGLVQAGGSLRLSCAASGSIFRYYAMGWYRQAPGKERELVAVITGTGGSTYYADSVKGRFTISRDNAKNTVYLQMNSLKPEDTAVYYCNVYRPWGWFDYWGQGTQVTVSS,polyreactivity (PSR sort gate),high polyreactivity
QEQLQESGSGLVQAGGSLRLICAASRNIFQDWVMGWYRKEPGKEPELVAAISPGAITYYADSVKGRFTISRDNAKNTVYLQTNSLKPEDTAVYYCGAYYIVEYLHGYWGQGTRVTVSS,polyreactivity (PSR sort gate),low polyreactivity
QVQLVESGGGLVQAGGSLRLSCAASGRILYRNTMGWYRQAPGKERELVAAISRSGGSTYYADSVKGRFTISRDNAKNTVYLQMNSLKPEDTAVYYCAKSVVARGASTYIGGFYYWGQGTQVTVSS,polyreactivity (PSR sort gate),high polyreactivity
QVQLVESGGGLVQAGGSLRLICAATGRIFSPNAMGWYRQAPGKERELVAAITTSGGITYYADSVKGRFTISRDNAKNTVYLQMNSLKPEDTAVYYCNTGYNGRLRDDYWGQGTQVTVSS,polyreactivity (PSR sort gate),high polyreactivity
QVQLVESGAGLVQAGGSLRLSCAASGSTFWWNTMGWYRQAPGKERELVAAITTGGGTYYADSVKGRFTISRDNAKNTVYLQMNSLKPEDTAVYYCAATVRSYGWYAYHYSTYGYWGQGTQVTVSS,polyreactivity (PSR sort gate),low polyreactivity
QVQLVESGGGLVQAGGSLRLSCAASGSIFAYYVMGWYRHAHGKERELVAAISARGGRTYYADSVKGRFTISRDNAKNTVYLQMNSLKQEDTAVYYCNALDQRYSQAVEYDYWGQGTQVTVSS,polyreactivity (PSR sort gate),high polyreactivity
QVQLVESGGGLVQAGGSLRLSCAASGRTFVVYAMGWYRQAPGKERELVAAINWSGTSTYYADSVKGRFTISRDNAKNTVYLQMNSLKPEDTAVYYCAAVAGLGTYRRYGYWGQGTQVTVSS,polyreactivity (PSR sort gate),high polyreactivity
QVQLVESGGGLVQAGGSLRLSCAASGSIFGYYAMGWYRQAPGKERELVAAISGSGGSTYYADSVKGRFTISRDNAKNTVYLQMNSLKPEDTAVYYCDRVRGGYDKMYYWGQGTQVTVSS,polyreactivity (PSR sort gate),high polyreactivity
QVQLVESRGGLVQAGGSLRLSCAASGSTFRRYAMGWYRQAPGKERELVAAITTRGGSTYYADSVKGRFTISRDNAKNTVYLQMNSLKPEDTAVYYCARDYSTYLRTAGDYWGQGTQVTVSS,polyreactivity (PSR sort gate),low polyreactivity
QVQLVESGGGLVQAGGSLRLSCDASGSIFRGNAMGWYRQAPGKERELVATITNGGSTNYADSVKGRFTISRDNAKNTVYLQMNSLKPEDTAVYYCNADHSYHIASTRHVDYWGQGTQVTVSS,polyreactivity (PSR sort gate),low polyreactivity
QVQLVESGGCLVQAGGSLRLSCAASGFIFSRNAIGWYRQAHGKERELVAAISLRGGSTYYADSVKGRFTISRDYAKNTVYLQMNSLKPEDTAVYYCAAPLFSGYDYWVQGTQVTVSS,polyreactivity (PSR sort gate),low polyreactivity
QVQLVESGGGLVQAGGSLRLSCAASGSTFARYAMGWYRQAPGKERELVAVITRSGGSTYYADSVKGRFTISRDNAKNTVYLQMNSLKPEDTDVYYCNKYGYKGGVGYDYWGQGTQVTVSS,polyreactivity (PSR sort gate),high polyreactivity
QVQLVESGGGLVQAGGSRSLSCAASGRNFYYYTMGWYRQAPGKERELVAAISWGGVNTDYADSVKGRFTISRDNAKNTVYLQMNSLKPEDTAVYYCAAGRWSVGTYDYWGQGTQVTVSS,polyreactivity (PSR sort gate),low polyreactivity
QVQIVESGGGLVQAGGNLRLSCAASGFIFTRYAMGWYRQAPGKERELVAAISTSVDRTYYADSVKGRFSISRDNAKNTVYLQMNSLKPEDTAVYYCAVVRPRSVGRYDYWGQGTQVTVSS,polyreactivity (PSR sort gate),high polyreactivity
QVQLVESGGGKVQAGGSLRLICAASGSTFTYNTMGWYRQAPGKERELVAAISSGGSTYYADSVKGRFTISRDNAKNTVYLQLNSLNPVDTAVYYCAATAQKYSRYGSRYYYWGQGTQVTVSS,polyreactivity (PSR sort gate),high polyreactivity
QVQLVESVGGLVQAGGSLRLSCAASGSIFYPYAMGWYRQAPGKERELVAAIRNGRSTYYADSVKGRFTISRDNAKNTVYLKMNSLKPEDTAVYYCAASVRRRHPFEYWGQGTQVTVSS,polyreactivity (PSR sort gate),high polyreactivity
QVQLVESGGGLVQAGGSLRLSCAASGSTYAGYAMGWYRQAPGKERELVAAISRRGGSTYYADSVKGRFTISRDNAKNTVYLQMNSLKPEDTAVNYCNRDKYLRDPDYDYWGQGTQVTVSS,polyreactivity (PSR sort gate),low polyreactivity
QVQLVESGGGLVQAGGSLRLSCAASGSTLRGNAMGWYRQAPGKERELVAAISWSGGITYYADSVKGRFTISRDNAKNTVYLQMNSLKPEDTAVYYCAVDRPRGGPTKYERRTKHGYWGQGTQVTVSS,polyreactivity (PSR sort gate),low polyreactivity
QVQLVESGGGLVQAGGSLRLSCAASGSTFSRYTMGWYRQAPGKERELVAAISYRGGSTYYADSVKGRFTISRDNAKNTVYLQMNSLKPEDTAVYYCAAEYRVEGSDYDYWGQGSQVTVSS,polyreactivity (PSR sort gate),low polyreactivity
QVQLVESGGGLVQAGGSLRLSCAASGSTFSRNAMGWYRQAPGKERELVAGITTSGGRTYYADSVKGRFTISRDNAKNTVYLQMNSLKPEDTAVYYCANSGYRYFYGRPRFDYWGQGTQVTVSS,polyreactivity (PSR sort gate),high polyreactivity
QVQLVESGGGLVQAGGSLRLSCAASGRTFRAYAMGWYRQAPGKEMELVAGITSGGSTNYADSVKGRFTISRDNAKNTVYLQMNSLKPEDTAVYYCAARRGTYRYRYDYWGQGTQVTVSS,polyreactivity (PSR sort gate),high polyreactivity
QVQLVESGGGLVQAGGSLRLSCAASGRTFDGYTMGWYRQAPGKERELVAAISGGGGSTYYADSVKGRFTISRDNAKNTVYLQLNSLKPEDTAVYYCNKVVRQHGGLYNYWGQGTQVTVSS,polyreactivity (PSR sort gate),low polyreactivity
QVQLVESGGGLVQAGGSLRLSCAASGRIFVKYAMGWYRQEPGKERELVAAIRWSVGSTYYADSVKGRFTISRDNAKNTVYLLMNSLKPEDTAVYYCAAQPVRKLYWGQGTQVTVSS,polyreactivity (PSR sort gate),high polyreactivity
HVQLVESGGGLVQAGGSLRLRSAASGRIFYYNAMGWYRQAPGKERELVASISWDASSTYYADSVKGLFTISRDNAKNTVYLQMNSLKPEDTAVYYCNKIHLYRQYDYWGQGTQVTVSS,polyreactivity (PSR sort gate),low polyreactivity
QVQLVESGGGLVQAGGSLRLSCAASGLTFSRYAMGWYRQAPGKERELVAAIKGRGGSTYYADSVKGRFTISRDNAKNTVYLQMNSLKPEDTAVYYCAATTRGSYSGNRPAYYWGQCTQVTVSS,polyreactivity (PSR sort gate),high polyreactivity
QVQLVESGGGLVQAGGSLRLSSAASGFIYRGNVMGWYRQAPGKERELVAAITWSGGSTYYADSVKGRFTISRDNAKNTVYLQMNSLKPDDTAVYYCNADLYIYEWYPALHSNDYWGQGSQVTVSS,polyreactivity (PSR sort gate),low polyreactivity
QVQLVESGGGLVQAGGSLRLSCAASRRTYKYNAMGWYRQAPGKEREVVAAISRSGGSTYYADSVKGRFTISRDNAKNTVYLQMNILKPEDTAVYDCAVSYRPGGYRRHFRYVYWGQGTQVTVSS,polyreactivity (PSR sort gate),high polyreactivity
QVQLVESGGGLVQAGGSLRLRCAASGIIFGTNAMGWYRQAPGKERELVAGITSSGDSTYYADSVKGRFTISRDNAKNTVYLQMNSLKAEDTAVYYCARDIRTREFDSWGQGTQVTVSS,polyreactivity (PSR sort gate),low polyreactivity
QVQLEDSGGGLVQAGGSLRLSCAASGFTFGVYAMGWYRQAPGKQRELVAAITSGGGRTYADSVKWRFTISRDNAKNTVYLQMNSLKPEDTAVYYCAAEGVPLRVVWDYSYWDYDYDYWGQGTQVTVSS,polyreactivity (PSR sort gate),low polyreactivity
QVQLVESVGGLGQAGGSLRLSCAASGYIFRPDAMGWYRQEPGKERELVAVISSGGSTYYADSVKGRFTISRDNAKNTVYLQMNSLKPEDTAVYYCNRTLPSIGGTTYEYWRQGTQVTVSS,polyreactivity (PSR sort gate),low polyreactivity
QVQLVESGGGLVQAGGSLRLSCAASGLTFVGYAMGWNRQAPGKERELVAAISGVGTTNYGDSVKGRFTISRDNAKNTVYLQMNSLKPEDTAVYYCAKAPYPVPYGLYDYWGQGTQVTVSS,polyreactivity (PSR sort gate),low polyreactivity
QVQLVESGGCLVQEGGSLRLSCAASGSIFHDYIMGWYRQAPGKEMELVAAMSSGGSTYYADSVKGRFTISRDNAKNTVYLQMNSLKPEDTEVYYCAAKSRSQVYPHYYWGQGTQVTVSS,polyreactivity (PSR sort gate),low polyreactivity
QVQLVESGGGLVQAGGSLRLSCAASGSTFYDYVMGWYRQAPGKERELVAAITGSGGRTYYADSVKGRFTISRDNAKNTVYLQMNSLKPEDTAVYYCAVRVHYNRVYGRYSPRYDYWGQGTQVTVSS,polyreactivity (PSR sort gate),high polyreactivity
QVQLVESGGGLVQAGGSLRLSCAASGSTLPANAMGWYRQAPGKERELVAAITITTDGSTYYADSVKGRFTISRDNAKNTVYLQMNSLKAEDTAVYYCAVARYRYHIRKMGYWGQGTQVTVSS,polyreactivity (PSR sort gate),low polyreactivity
QVQLVETGGGLVQAGGSLRLSCAASGRISQNAMGWYRQAPGKERELVAAITFSGGSTYYADSVKGRFTISRDNAKNTVYIQMNSLKAEDTAVYYCNVRQYTDGMKYDYWGQGTQVTVSA,polyreactivity (PSR sort gate),low polyreactivity
QVQLVESGGGLVQAGGSLRLSCAASGRIFVDNAMGWYRQAPGKESELVADITSGGSTYYADSVKGRFTISRDNAKNTVYLQMNSLKPEDTAVYYCAADYRVSSDYRYDYWGQGTQVTVSS,polyreactivity (PSR sort gate),low polyreactivity
HVQLVESGGGLVQAGGSLRLSSAASGITFYHNAMGWYRQAPGKEMELVAVSSRGGSTYYADSVKGRFTISRDNAKNTVYLQMNSLKPEDTAVYYCNARFWSYRGQVWYYYWGQGTQVTVSS,polyreactivity (PSR sort gate),high polyreactivity
QVQHVESGGGLVQAGGSLRLSCAASGSIFAGYAMGWYRQAPGKEWELVAAISRRGGRKYYADSVKGRFTISRDNAKNTVYLQMNSLKPEDTAVYYCAVTTPRGPYGYDYWGQGTQVTVSS,polyreactivity (PSR sort gate),high polyreactivity
QVQLVESGGGLVQAGGSLRLSCAASHANAIGWYRQAPGKERELVAAITYRGGSTYYADSVKGRFTISRDNAKNTVYLQMNSLKPEDTAVYYCNTDVYLYVYDFGYNYWGQGTQVTVSS,polyreactivity (PSR sort gate),low polyreactivity
QVQLVESGGGLVQAGGSLRLSCAAYGRTFRIYAMGWYRQAPGKERELVATITWRAGSTYYADSVKGRFTISRDNAKYTVYLQMNSLKPEDTAVYYCAADVSAYSGGYWLDYWGQGTQVTVSS,polyreactivity (PSR sort gate),high polyreactivity
QVQLLESGGGLVQAGRSLRLSCAPSGIIFRVYAMGWYRQAPGKERELVAAISSSGGNTYYADSVKGRFTISRDNAKNTVYLQLNSLKPEDTAVYYCAAPYGQLFTQGTWYEYWGQGTQVTVSS,polyreactivity (PSR sort gate),low polyreactivity
QVQLVESGGGLVQAGCSLRLSCAASGRPFWYNAMGGYRQAPGNVRELVAGISGSGGSTYYADSVKGRFTISRDNAKNTVYLQMNSLKPEDTAVYYCAATTGYSRSYRYGYWGQGTQVTVSS,polyreactivity (PSR sort gate),high polyreactivity
